US20220017627A1
Substitutions are numbered along the chain they refer to. Names and notes keep the numbering of the source. Each block holds one binder with its values, some of them ahead of it.

Key:
[1] = target: human IL-7Rα expressed on non-T cells (CD3- cells, monocytes) (human) (UniProt P16871); test: cell-based or functional assay
[2] = target: T1, hIL-7R (Example 11) (human) (UniProt P16871); test: NGS enrichment ratio, parental scFv, reference of the normalisation [cont'd]
T1 sequence: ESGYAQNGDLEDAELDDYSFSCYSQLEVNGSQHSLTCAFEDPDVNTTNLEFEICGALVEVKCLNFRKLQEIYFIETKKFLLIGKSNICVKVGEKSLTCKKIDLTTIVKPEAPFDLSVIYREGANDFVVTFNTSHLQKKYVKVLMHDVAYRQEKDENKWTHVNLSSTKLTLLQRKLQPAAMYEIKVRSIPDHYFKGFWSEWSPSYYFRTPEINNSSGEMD

[3] = target: T1, hIL-7R (Example 11) (human); test: SPR at 37C
[4] = target: T1, hIL-7R (Example 11) (human); test: NGS enrichment ratio of the mutation in the scFv library selected at 0.2 nM hIL-7R
[5] = target: T1, hIL-7R (Example 11) (human); test: SPR (Biacore), ratio KD of parent 18B1 to KD of variant

MCP1 Production IC50, purified monocytes, TSLP [1]: 24 nM
B1: Anti-IL-7R Antibody (Antibody A) (antibody, human IgG1, kappa, V domains shown)
VH: EVQLVESGGGLVQPGRSLRLSCAASGFTFDDHAMHWVRQAPGKGLEWVSGISWNSRGIGYADSVKGRFTIFRDNAKNSLYLQMNSLRAEDTALYYCAKDEYSRGYYVLDVWGQGTTVTVSS
VL: AIQLTQSPSSLSASVGDRVTITCRASQGISSALAWYQQKPGKAPKLLIYDASSLESGVPSRFSGSGSGTDFTLTISSLQPEDFATYYCQQFNSYPLWITFGQGTRLEIKR

0.2 nM NGS [2]: 1
Kd [3]: 1.3 nM
koff [3]: 0.000403 s⁻¹
kon [3]: 311000 M⁻¹ s⁻¹
B2: 18B1 scFv (scFv, V domains shown, not shown: small tags and cut ends)
VH: B1 VH
VL: AIQLTQSPSSLSASVGDRVTITCRASQGISSALAWYQQKPGKAPKLLIYDASSLESGVPSRFSGSGSGTDFTLTISSLQPEDFATYYCQQFNSYPLWITFGQGTRLEIK
modifications: linker; domain order unknown

0.2 nM NGS [4]: 0.01
KD Relative to 18B1 [5]: 0.01
B3: 18B1 LC Y94A (antibody, human IgG1, kappa, V domains shown)
VH: B1 VH
VL: B1 VL with Y94A

0.2 nM NGS [4]: 0.01
KD Relative to 18B1 [5]: 0.01
B4: 18B1 LC L95aA (antibody, V domains shown)
VH: B1 VH
VL: B1 VL with L96A
